# Measurements taken from paper PMC7683652 (Nature Communications, 2020).
# B1: TDP-43 N-terminal region (aa 1-100) (domain or fragment, UniProt Q13148 1-100, looked up)
# chain: MSEYIRVTEDENDEPIEIPSEDDGTVLLSTVTAQFPGACGLRYRNPVSQCMRGVRLVEGILHAPDAGWGNLVYVVNYPKDNKRKMDETDASSAVKVKRAV
# notes: the methods say aa; 1-101; calculated 12.5 kDa; C-terminal limit is printed as 100 (results, legend) and as 101 (methods); also called N-terminal TDP-43; source: E. coli M15 (pQE30), purified (Ni-NTA)
# Biological target: the molecule itself
# Experiment: SEC; size exclusion chromatography of the truncated TDP-43 proteins against molecular weight standards (Supplementary Fig. 3a); conditions not shown
protein,measurement,value
B1,stoichiometry N,2
